Non-standard residues stand in square brackets, D forms with d. d(pT) = C[C@H](OP(=O)(O)O)[C@@H](N)C(=O)O
Experiments:
[1] = Translational diffusion NMR (DOSY) of NLS peptides; assay type: physicochemical; conditions: ~100 μM peptide
Source text: For the four peptides, we measured the experimental value of D for dioxane ranging from (1.2 ± 0.1) × 10^−5 to (1.05 ± 0.02) × 10^−5 cm^2 s^−1 in each solution containing the corresponding peptide; we assumed a hydrodynamic radius of 2.12 Å for dioxane (Table 1) under any condition. […] Furthermore, the values of D were similar for the D- and L-peptides, and the latter were already being described as disordered. Thus, we can conclude that the four D-peptides were monomeric and disordered, like the L-form counterparts, and, then, there was no difference in the hydrodynamic properties of the peptides by changing the enantiomeric nature of the residues.
The NMR spectra were acquired at 10 °C on a Bruker Avance III spectrometer (Bruker GmbH, Mannheim, Germany), equipped with a triple-resonance probe and z-pulse field gradients. All NMR experiments with D-NLS peptides were carried out in 50 mM deuterated Tris buffer (not corrected for isotope effects), pH 7.2. Spectra were calibrated with TSP, by considering pH-dependent changes in its chemical shifts; probe temperature was calibrated with pure methanol.
The typical D-NLS peptide concentrations in DOSY experiments were ~100 μM, and 128 scans were acquired, in which the gradient strength was varied linearly in sixteen steps, between 2 and 95% of the total power of the gradient coil. Measurements of the translational self-diffusion coefficient, D, were performed with the pulsed-gradient spin-echo sequence in the presence of 100% D2O. Details on the experimental conditions and fitting of the resulting curves have been described elsewhere. Gradient strength was calibrated by using the value of D for the residual proton water signal in a sample containing 100% D2O, in a 5 mm tube [23]. Gradient length was 2.5 ms; the time between the two pulse gradients in the sequence was 250 ms; and the recovery delay between the bipolar gradients was 100 μs. The signals from methyl groups between 0.8 and 1.0 ppm were used for peak integration, for all the D-NLS peptides. A final concentration of 1% of dioxane, which was assumed to have a hydrodynamic radius Rh of 2.12 Å [23], was added to the solution of each peptide.

Impα3 = target: T1, Impα3 (Homo sapiens, UniProt O00629); test: Biolayer interferometry (BLI) binding to Impα3; conditions: BLItz, Impα3 immobilized via His-tag (0.25 μM), peptide 1–10 μM, 10 × kinetics buffer, 25 °C, error from pseudo-first order fit, at least two repeats
T1 construct: Human importin α3 isoform (residues 1–521); made in house
T1 sequence (O00629 1-521): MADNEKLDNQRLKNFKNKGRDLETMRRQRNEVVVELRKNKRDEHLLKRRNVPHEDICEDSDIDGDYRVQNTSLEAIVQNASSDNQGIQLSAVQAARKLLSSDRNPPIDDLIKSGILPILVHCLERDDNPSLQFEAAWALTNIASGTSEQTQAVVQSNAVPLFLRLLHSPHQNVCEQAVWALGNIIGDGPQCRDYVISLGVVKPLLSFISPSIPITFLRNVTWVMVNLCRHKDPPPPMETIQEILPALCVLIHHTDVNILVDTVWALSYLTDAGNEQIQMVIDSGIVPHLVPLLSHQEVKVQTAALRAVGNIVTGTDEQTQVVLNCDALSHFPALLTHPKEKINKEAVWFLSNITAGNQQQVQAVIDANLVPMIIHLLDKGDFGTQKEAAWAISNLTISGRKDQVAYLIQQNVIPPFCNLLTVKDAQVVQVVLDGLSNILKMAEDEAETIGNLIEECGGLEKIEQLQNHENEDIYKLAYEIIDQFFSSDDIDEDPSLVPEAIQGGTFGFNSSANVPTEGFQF
Procedure: (§1) The association (kon) and dissociation (koff) rate constants of the binding of D-NLS peptides to either Impα3 or ∆Impα3 were determined by using a BLItz system (ForteBio, Pall, Barcelona, Spain). The buffer used in the experiments was that recommended by the manufacturer. […] The peptide concentrations were in a range from 1 to 10 μM during the association step. The general scheme of the protein association/dissociation reactions in the BLItz system for the D-NLS peptides was as follows: 30 s of initial baseline acquisition with the 10 × kinetics buffer (provided by the manufacturer); 120 s of loading either Impα3 and ∆Impα3 into the biosensor; 30 s of baseline acquisition with the 10 × kinetics buffer; 120 s of association of each peptide to the biosensor (which had been previously loaded with the importin species); and 120 s of monitoring of the dissociation of each peptide from the biosensor. All experiments were carried out at 25 °C.
(§2) Fittings of the BLI sensorgrams was carried out by using KaleidaGraph, as previously described. The interferometry response during the association step, R(t) (measured in response units, RU), and the binding rate, dR(t)/dt, could be used to evaluate the kinetics of the formation of the complex between Impα3/∆Impα3 and each D-NLS, according to:(2) dR/dt=konD-NLSRmax−Rt−koffR(t) where Rmax is proportional to the total concentration of biosensor-bound importin species; and [D-NLS] represents the concentration of the corresponding D-NLS peptide.
(§3) In Equation (2), R(t) is given by:(3) Rt= Req−Reqe^(−kobs t−t0) where Req is the steady-state (or equilibrium) response obtained at infinite time, when dR(t)/dt = 0, and t0 = 180 s is the time at which the association step between biosensor-immobilized Impα3/∆Impα3 and D-NLS in the solution started. We fitted the experimentally obtained R(t) under any condition as:(4) Rt= Req−Reqe^−kobs t−t0−R’eq(t−t0) where R^′eq was included to consider the lineal drift observed at longer times.
(§4) The dissociation process was always fitted to a single exponential, with R(t) given by:(6) Rt=R1 e^(−kofft−t0)−R^″eq(t−t0) where t0 = 300 is the time at which the dissociation of the D-NLS from the biosensor-bound Impα3/∆Impα3 started in our experimental set-up, R1 is the response level when dissociation starts, and the parameter R^″eq considers the linear drift observed at longer times.
(§5) The experiments were repeated at least twice for each peptide with each importin species.

∆Impα3 = target: T2, ∆Impα3 (Homo sapiens, UniProt O00629); test: Biolayer interferometry (BLI) binding to ∆Impα3; conditions: BLItz, ∆Impα3 immobilized via His-tag (0.25 μM), peptide 1–10 μM, 10 × kinetics buffer, 25 °C, error from pseudo-first order fit, at least two repeats
T2 construct: IBB-depleted species of Impα3 (residues 64–521 of the intact protein); made in house
T2 sequence (O00629 64-521): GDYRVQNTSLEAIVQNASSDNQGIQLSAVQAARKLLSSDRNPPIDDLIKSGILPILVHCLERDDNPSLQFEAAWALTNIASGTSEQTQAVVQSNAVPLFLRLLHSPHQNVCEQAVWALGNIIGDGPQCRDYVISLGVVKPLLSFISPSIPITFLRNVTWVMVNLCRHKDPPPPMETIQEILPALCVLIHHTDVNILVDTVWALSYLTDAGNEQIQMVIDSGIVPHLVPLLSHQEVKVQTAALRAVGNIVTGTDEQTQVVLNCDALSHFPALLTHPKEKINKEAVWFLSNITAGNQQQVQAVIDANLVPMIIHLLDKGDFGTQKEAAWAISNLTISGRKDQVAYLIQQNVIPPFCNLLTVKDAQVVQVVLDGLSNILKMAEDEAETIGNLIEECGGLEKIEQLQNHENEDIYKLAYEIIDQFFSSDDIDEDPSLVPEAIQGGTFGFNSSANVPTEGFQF
Procedure: as §1, §2, §3, §4, §5

[2] = target: T3, IBB-depleted species of Impα3 (residues 64–521 of the intact protein) (human, UniProt O00629 64-521); test: BLI; His-tagged Impα3 or ∆Impα3 immobilised on His-tag biosensors at 0.25 μM; peptides 1 to 10 μM; BLItz system, manufacturer's 10x kinetics buffer; 25 °C; kon and koff from pseudo-first-order plots; apparent Kd = koff/kon, two-state process assumed; conditions: both partners purified
T3 construct: PDB 5XZX was used only as the model of ∆Impα3 for docking; its limits may differ from 64-521; also called ΔImpα3; truncated importin species
T3 sequence (looked up): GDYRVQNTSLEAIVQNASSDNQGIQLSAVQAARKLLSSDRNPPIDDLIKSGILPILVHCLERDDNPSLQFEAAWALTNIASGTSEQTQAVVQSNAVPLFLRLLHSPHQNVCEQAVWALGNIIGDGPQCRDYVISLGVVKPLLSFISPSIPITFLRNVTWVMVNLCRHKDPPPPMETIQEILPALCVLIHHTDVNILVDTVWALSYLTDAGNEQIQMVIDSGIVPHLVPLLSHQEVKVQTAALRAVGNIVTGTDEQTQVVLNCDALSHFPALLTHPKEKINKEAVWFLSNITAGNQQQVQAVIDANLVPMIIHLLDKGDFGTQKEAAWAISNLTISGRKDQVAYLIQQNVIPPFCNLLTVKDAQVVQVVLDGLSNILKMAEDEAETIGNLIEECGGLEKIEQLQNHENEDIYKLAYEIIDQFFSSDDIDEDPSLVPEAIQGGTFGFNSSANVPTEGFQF

[3] = target: T4, Human importin α3 isoform (residues 1–521) (human, UniProt O00629 1-521); test: as above; conditions: both partners purified
T4 construct: human importin α3 (Impα3, KPNA4), residues 1-521, intact protein with the N-terminal IBB domain; The materials list Ni2+-resin, ampicillin and IPTG, so expression in E. coli is surmised; also called Impα3; KPNA4
T4 sequence (looked up): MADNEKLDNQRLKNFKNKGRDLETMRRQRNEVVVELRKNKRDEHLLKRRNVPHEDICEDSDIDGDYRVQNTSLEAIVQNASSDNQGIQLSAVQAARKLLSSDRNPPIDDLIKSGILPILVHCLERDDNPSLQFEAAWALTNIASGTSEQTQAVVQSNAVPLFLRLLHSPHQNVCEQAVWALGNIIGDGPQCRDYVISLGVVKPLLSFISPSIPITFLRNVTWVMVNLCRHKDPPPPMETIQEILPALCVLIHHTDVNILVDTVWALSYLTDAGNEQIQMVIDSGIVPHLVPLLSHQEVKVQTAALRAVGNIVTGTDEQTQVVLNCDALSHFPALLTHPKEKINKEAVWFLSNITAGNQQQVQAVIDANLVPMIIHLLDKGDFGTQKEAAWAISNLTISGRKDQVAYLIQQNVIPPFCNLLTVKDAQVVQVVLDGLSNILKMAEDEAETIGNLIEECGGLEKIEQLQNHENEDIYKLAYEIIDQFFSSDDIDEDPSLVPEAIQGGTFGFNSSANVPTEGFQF

| Molecule | Hydrodynamic radius Rh ([1]; D-peptides, by comparison with D of dioxane (1%, Rh 2.12 Å), 50 mM deuterated Tris pH 7.2, 10 °C) [Å] | Diffusion coefficient D ([1]; 50 mM deuterated Tris pH 7.2, 100% D2O, 10 °C) [cm^2 s^−1 × 10^6] | kon (Impα3) [M⁻¹ s⁻¹] | kon (∆Impα3) [M⁻¹ s⁻¹] | Kd [2] [µM] | koff [2] [s⁻¹] | kon [2] [M⁻¹ s⁻¹] | Kd [3] [µM] | koff [3] [s⁻¹] | kon [3] [M⁻¹ s⁻¹] |
| --- | --- | --- | --- | --- | --- | --- | --- | --- | --- | --- |
| YT^54NRPSPGGHERKLVTKLQNSE^74 [D-NLS-NUPR1, D-enantiomeric, isolated NLS region of NUPR1 (residues 54–74 of the intact protein)] | 9 ± 1 | 1.78 ± 0.08 | 50000 ± 10000 | 110000 ± 20000 |  |  |  |  |  |  |
| Ac-[dY][dT][dN][dR][dP][dS][dP]GG[dH][dE][dR][dK][dL][dV][d(pT)][dK][dL][dQ][dN][dS][dE]-NH2 (SMILES CC(=O)N[C@H](Cc1ccc(O)cc1)C(=O)N[C@@H](C(=O)N[C@H](CC(N)=O)C(=O)N[C@H](CCCNC(=N)N)C(=O)N1CCC[C@@H]1C(=O)N[C@H](CO)C(=O)N1CCC[C@@H]1C(=O)NCC(=O)NCC(=O)N[C@H](Cc1c[nH]cn1)C(=O)N[C@H](CCC(=O)O)C(=O)N[C@H](CCCNC(=N)N)C(=O)N[C@H](CCCCN)C(=O)N[C@H](CC(C)C)C(=O)N[C@@H](C(=O)N[C@@H](C(=O)N[C@H](CCCCN)C(=O)N[C@H](CC(C)C)C(=O)N[C@H](CCC(N)=O)C(=O)N[C@H](CC(N)=O)C(=O)N[C@H](CO)C(=O)N[C@H](CCC(=O)O)C(N)=O)[C@H](C)OP(=O)(O)O)C(C)C)[C@H](C)O, NLS region of NUPR1 (nuclear protein 1), residues 54-74 of the intact protein, made of D-amino acids, Thr68 phosphorylated; Mirror-image (all-D) peptide; also called D-NLS-NUPR1phospho; source: synthetic peptide (Genscript, purity higher than 95%)) [D-enantiomeric, isolated NLS region of NUPR1 with phosphorylated Thr68] |  |  |  |  | 8 | 0.05 | 6000 | 13 | 0.13 | 10000 |
| Ac-[dY][dT][dN][dR][dP][dS][dP]GG[dH][dE][dR][dK][dL][dV][dT][dK][dL][dQ][dN][dS][dE]-NH2 (NLS region of NUPR1 (nuclear protein 1), residues 54-74 of the intact protein, made of D-amino acids; also called D-NLS-NUPR1; wild-type D-NLS-NUPR1; source: synthetic peptide (Genscript, purity higher than 95%)) [D-enantiomeric, isolated NLS region of NUPR1 (residues 54–74 of the intact protein)] |  |  |  |  |  |  | 110000 |  |  | 50000 |
